Measurements reported in the supplement of paper PMC7125110.
± gives the standard error. Variants at the floor of the assay were thinned out.

B1: glmS ribozyme (parent)
chain: AUAAAAGCGCCAGAACUACAGAAAUGUAGUUGACGAGGAGGAGGUUUAUCGAAUUUUCGGCGGAUGCCUCCAAA

What was measured:
Conditions in all cases: with glucosamine-6-phosphate
[1] = variants of: B1; test: self-cleavage kobs at 160 uM GlcN6P; higher = faster cleavage; RNA array
How it was run: (§1)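 Over ~14 h at 37 °C, tiles were imaged as glucosamine-6-phosphate (40 μM to 10 mM) in HEPES/KCl/Mg(OAc)2 buffer flowed across sequenced MiSeq chips. The chips carried barcoded ribozyme variants transcribed in situ by E. coli RNA polymerase and tracked with a hybridised Cy3 probe. After normalisation to baseline and to non-cleaving reference variants, one- or two-exponential decay fits of per-tile medians gave kobs. kcat and KM followed from weighted Michaelis–Menten fits across concentrations.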

[2] = variants of: B1; test: self-cleavage kobs at 640 uM GlcN6P; higher = faster cleavage; RNA array
How it was run: as §1

[3] = variants of: B1; test: self-cleavage kobs at 2500 uM GlcN6P; higher = faster cleavage; RNA array
How it was run: as §1

[4] = variants of: B1; test: self-cleavage kobs at 10000 uM GlcN6P; higher = faster cleavage; RNA array
How it was run: as §1

Variant: AUAAAAGCGCCAGAACUACAGAAAUGUAGUUGACGACGAGGAGGUUUAUCGAAUUUUCGGCGGAAGCCUCCAAA
- self-cleavage kobs at 160 uM GlcN6P [1]: < 1e-05 s⁻¹
- self-cleavage kobs at 640 uM GlcN6P [2]: < 1e-05 s⁻¹

Variant: AUAAAAGCGCCAGAACUACAGAAAUGUAGUUGACGGGGAGGAGGUUUAACGAAUUUUCGGCGGAUGCCUCCAAA
- self-cleavage kobs at 160 uM GlcN6P [1]: < 1e-05 s⁻¹
- self-cleavage kobs at 640 uM GlcN6P [2]: < 1e-05 s⁻¹
- self-cleavage kobs at 2500 uM GlcN6P [3]: < 1e-05 s⁻¹
- self-cleavage kobs at 10000 uM GlcN6P [4]: < 1e-05 s⁻¹

Variant: AUAAAAGCGCCAGAACUACAGAAAUGUAGUUGACGUGGAGGAAGUUUAUCGUAUUUUCGGCGAAUGACUCCAAA
- self-cleavage kobs at 160 uM GlcN6P [1]: < 1e-05 s⁻¹

Variant: AUAAAAGCGCCAGAACUACAGAAAUGUAGUUGACGCGGAGGAGGUUUAUCGAAUUAUCGGCGGAUGCCUCCAAA
- self-cleavage kobs at 160 uM GlcN6P [1]: < 1e-05 s⁻¹
- self-cleavage kobs at 640 uM GlcN6P [2]: < 1e-05 s⁻¹
- self-cleavage kobs at 2500 uM GlcN6P [3]: < 1e-05 s⁻¹

Variant: AUAAAAGCGCCAGAACUACAGAAAUGUAGUUGACGUGGAGAUUGUUUAUCGAAUUUUCGGCGGAUGCCUCCAAA
- self-cleavage kobs at 160 uM GlcN6P [1]: < 1e-05 s⁻¹
- self-cleavage kobs at 640 uM GlcN6P [2]: < 1e-05 s⁻¹
- self-cleavage kobs at 2500 uM GlcN6P [3]: < 1e-05 s⁻¹

Variant: AUAAAAGCGCCAGAACUACAGAAAUGUAGUUGACGACGAGGAGGUUUAUCUAAUUUUCGGCGGAUGCCUCCAAA
- self-cleavage kobs at 160 uM GlcN6P [1]: < 1e-05 s⁻¹
- self-cleavage kobs at 10000 uM GlcN6P [4]: < 1e-05 s⁻¹

Variant: AUAAAAGCGCCAGAACUACAGAAAUGUAGUUGACGAAGAGGAGGUGUAUCGAGUUUUCGGAGGAUGCCUACAAA
- self-cleavage kobs at 160 uM GlcN6P [1]: < 1e-05 s⁻¹

Variant: AUAAAAGCGCCAGAACUACAGAAAUGUAGUUGACGAAGAGGAGGUUUAUGGAAUUUUCGGCGGAUGCCCCCAAA
- self-cleavage kobs at 160 uM GlcN6P [1]: 5.92e-05 ± 1.9e-05 s⁻¹
- self-cleavage kobs at 640 uM GlcN6P [2]: 7.07e-05 ± 2.7e-05 s⁻¹

Variant: AUAAAAGCGCCAGAACUACAGAAAUGUAGUUGACGACGAGGACGUUCAUCGAAUUUUCGGCGGAUGCCUCCAAA
- self-cleavage kobs at 160 uM GlcN6P [1]: < 1e-05 s⁻¹
- self-cleavage kobs at 2500 uM GlcN6P [3]: < 1e-05 s⁻¹

Variant: AUAAAAGCGCCAGAACUACAGAAAUGUAGUUGACGUGGAGGAGGCUUAUCGAAUUUUCGGCGGAUGCCUCCAAA
- self-cleavage kobs at 160 uM GlcN6P [1]: < 1e-05 s⁻¹
- self-cleavage kobs at 640 uM GlcN6P [2]: < 1e-05 s⁻¹
- self-cleavage kobs at 2500 uM GlcN6P [3]: < 1e-05 s⁻¹
- self-cleavage kobs at 10000 uM GlcN6P [4]: < 1e-05 s⁻¹

Variant: AUAAAAGCGCCAGAACUACAGAAAUGUAGUUGACGUGGAGGAGGUUUAUCGAAUUUCCGGCGGAUGCCUCCAAA
- self-cleavage kobs at 160 uM GlcN6P [1]: < 1e-05 s⁻¹
- self-cleavage kobs at 10000 uM GlcN6P [4]: < 1e-05 s⁻¹

Variant: AUAAAAGCGCCAGAACUACAGAAAUGUAGUUGACGAAGAGGAGAUCUUUCGAAUUUUCGGCGGAUGCCUCUAAA
- self-cleavage kobs at 160 uM GlcN6P [1]: < 1e-05 s⁻¹
- self-cleavage kobs at 640 uM GlcN6P [2]: < 1e-05 s⁻¹
- self-cleavage kobs at 2500 uM GlcN6P [3]: < 1e-05 s⁻¹

Variant: AUAAAAGCGCCAGAACUACAGAAAUGUAGUUGACGGGUAGGAGGUUUAUCGAAUUUUCGGCGGAUGCCUCCAAA
- self-cleavage kobs at 160 uM GlcN6P [1]: < 1e-05 s⁻¹
- self-cleavage kobs at 10000 uM GlcN6P [4]: < 1e-05 s⁻¹

Variant: AUAAAAGCGCCAGAACUACAGAAAUGUAGUUGACGGGGAGGAGGUUUAUCGAAUUUUCGCCGGAUGCCUCCAAA
- self-cleavage kobs at 160 uM GlcN6P [1]: < 1e-05 s⁻¹
- self-cleavage kobs at 640 uM GlcN6P [2]: < 1e-05 s⁻¹
- self-cleavage kobs at 2500 uM GlcN6P [3]: < 1e-05 s⁻¹
- self-cleavage kobs at 10000 uM GlcN6P [4]: < 1e-05 s⁻¹

Variant: AUAAAAGCGCCAGAACUACAGAAAUGUAGUUGACGUGGAGGAGAUUUAUCGAAUAUUCGGCGGAUGCCUCCAAA
- self-cleavage kobs at 160 uM GlcN6P [1]: < 1e-05 s⁻¹
- self-cleavage kobs at 2500 uM GlcN6P [3]: < 1e-05 s⁻¹

Variant: AUAAAAGCGCCAGAACUACAGAAAUGUAGUUGACGUGGAGAAGGUUUAUCGAAGUUUCGGCGGAUGCCUCCAAA
- self-cleavage kobs at 160 uM GlcN6P [1]: < 1e-05 s⁻¹
- self-cleavage kobs at 640 uM GlcN6P [2]: < 1e-05 s⁻¹

Variant: AUAAAAGCGCCAGAACUACAGAAAUGUAGUUGACGAAGAGGCGGUCUAUCGAAUUUUCGGCGGAUGCCUCCAAA
- self-cleavage kobs at 160 uM GlcN6P [1]: < 1e-05 s⁻¹
- self-cleavage kobs at 2500 uM GlcN6P [3]: < 1e-05 s⁻¹

Variant: AUAAAAGCGCCAGAACUACAGAAAUGUAGUUGACGCGGAGUAGGUUUAUCGAAUUUUCGGCGGAUGCCUCCAAA
- self-cleavage kobs at 160 uM GlcN6P [1]: < 1e-05 s⁻¹
- self-cleavage kobs at 640 uM GlcN6P [2]: < 1e-05 s⁻¹
- self-cleavage kobs at 2500 uM GlcN6P [3]: < 1e-05 s⁻¹
- self-cleavage kobs at 10000 uM GlcN6P [4]: < 1e-05 s⁻¹

Variant: AUAAAAGCGCCAGAACUACAGAAAUGUAGUUGACGACGAGGACGUUUAUCGAAUUUUCGGCGGAUGCCUCCAAA
- self-cleavage kobs at 160 uM GlcN6P [1]: < 1e-05 s⁻¹
- self-cleavage kobs at 640 uM GlcN6P [2]: < 1e-05 s⁻¹
- self-cleavage kobs at 2500 uM GlcN6P [3]: < 1e-05 s⁻¹
- self-cleavage kobs at 10000 uM GlcN6P [4]: < 1e-05 s⁻¹

Variant: AUAAAAGCGCCAGAACUACAGAAAUGUAGUUGACGCGGAGGAGGUUUAUCGAAUUUUCGGCGGAUCCCUCCAAA
- self-cleavage kobs at 160 uM GlcN6P [1]: < 1e-05 s⁻¹
- self-cleavage kobs at 640 uM GlcN6P [2]: < 1e-05 s⁻¹
- self-cleavage kobs at 10000 uM GlcN6P [4]: < 1e-05 s⁻¹

Variant: AUAAAAGCGCCAGAACUACAGAAAUGUAGUUGACGCGGAGGAGGUAUAUCGAAUUUUCGGCGGAUGCCUCCAAA
- self-cleavage kobs at 160 uM GlcN6P [1]: < 1e-05 s⁻¹
- self-cleavage kobs at 2500 uM GlcN6P [3]: < 1e-05 s⁻¹
- self-cleavage kobs at 10000 uM GlcN6P [4]: < 1e-05 s⁻¹

Variant: AUAAAAGCGCCAGAACUACAGAAAUGUAGUUGACGCGGAGGAGGUGUAUCGGAUUUUCGUCGGAUGCCUCCAAA
- self-cleavage kobs at 160 uM GlcN6P [1]: < 1e-05 s⁻¹
- self-cleavage kobs at 640 uM GlcN6P [2]: < 1e-05 s⁻¹
- self-cleavage kobs at 2500 uM GlcN6P [3]: < 1e-05 s⁻¹

Variant: AUAAAAGCGCCAGAACUACAGAAAUGUAGUUGACGGGGAGGAGGUUUAUCGAAUUUUCGGCGGGUGCCUCUAAA
- self-cleavage kobs at 160 uM GlcN6P [1]: < 1e-05 s⁻¹
- self-cleavage kobs at 640 uM GlcN6P [2]: < 1e-05 s⁻¹

Variant: AUAAAAGCGCCAGAACUACAGAAAUGUAGUUGACGUGGAGGAGGUUAAUCGAAUUUUCGGCGGAUUCCUGUAAA
- self-cleavage kobs at 160 uM GlcN6P [1]: 4.68e-05 ± 2.2e-05 s⁻¹
- self-cleavage kobs at 2500 uM GlcN6P [3]: 0.00104 ± 0.00043 s⁻¹

Variant: AUAAAAGCGCCAGAACUACAGAAAUGUAGUUGACGGGGAGGAGGUUUAUCGAAUUUUAGACGGAUGCCUCCAAA
- self-cleavage kobs at 160 uM GlcN6P [1]: < 1e-05 s⁻¹
- self-cleavage kobs at 640 uM GlcN6P [2]: < 1e-05 s⁻¹
- self-cleavage kobs at 10000 uM GlcN6P [4]: < 1e-05 s⁻¹

Variant: AUAAAAGCGCCAGAACUACAGAAAUGUAGUUGACGCGGAGGAGGUUUAUCGCAUUUUCGGCGGAUGCCUUCAAA
- self-cleavage kobs at 160 uM GlcN6P [1]: < 1e-05 s⁻¹
- self-cleavage kobs at 640 uM GlcN6P [2]: < 1e-05 s⁻¹

Variant: AUAAAAGCGCCAGAACUACAGAAAUGUAGUUGACGAAUAGGAGGUUUAUCGAAUUUUCGGCGGACGCCUCCAAA
- self-cleavage kobs at 160 uM GlcN6P [1]: < 1e-05 s⁻¹
- self-cleavage kobs at 10000 uM GlcN6P [4]: < 1e-05 s⁻¹

Variant: AUAAAAGCGCCAGAACUACAGAAAUGUAGUUGACGACGAGCAGGUUUAUCGAAUUUUCGGCGGAUGCCUCCAAA
- self-cleavage kobs at 160 uM GlcN6P [1]: < 1e-05 s⁻¹
- self-cleavage kobs at 640 uM GlcN6P [2]: < 1e-05 s⁻¹
- self-cleavage kobs at 2500 uM GlcN6P [3]: < 1e-05 s⁻¹

Variant: AUAAAAGCGCCAGAACUACAGAAAUGUAGUUGACGGGGAGGUGGUUUAUCGAAUUCUCGGCGGAUGCCUCCAAA
- self-cleavage kobs at 160 uM GlcN6P [1]: < 1e-05 s⁻¹
- self-cleavage kobs at 640 uM GlcN6P [2]: < 1e-05 s⁻¹
- self-cleavage kobs at 2500 uM GlcN6P [3]: < 1e-05 s⁻¹
